Results published in doi:10.1101/2020.09.02.280610.

Target: recombinant soluble canine IL-10 receptor alpha chain (extra-cytoplasmic domain of canine IL-10R1) (canine)
Assay: SPR

EC80 (binding equilibrium constant): 51.4 nM | RU at 31.2 ng/mL: 211 RU | RU at 125 ng/mL (plateau): 1720 RU
Substance: recombinant canine IL-10 (from UniProt P48411 20-181) (ligand)
